What was measured:
[1] = molecular target: scRPA70A (DNA-binding domain A of RPA70) (Saccharomyces cerevisiae, UniProt P22336 181-294); assay: NMR chemical shift perturbation
[2] = molecular target: hRPA70A (DNA-binding domain A of RPA70) (human, UniProt P27694 181-290); assay: NMR chemical shift perturbation
hRPA70A (DNA-binding domain A of RPA70), sequence (P27694 181-290): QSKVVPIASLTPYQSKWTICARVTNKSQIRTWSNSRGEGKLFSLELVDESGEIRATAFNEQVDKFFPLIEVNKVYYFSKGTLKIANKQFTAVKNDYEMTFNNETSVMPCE

scRPA70A (DNA-binding domain A of RPA70), sequence (P22336 181-294): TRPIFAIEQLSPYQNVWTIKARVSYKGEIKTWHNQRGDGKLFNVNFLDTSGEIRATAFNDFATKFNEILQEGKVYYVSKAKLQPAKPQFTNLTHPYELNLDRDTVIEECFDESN

Binder: GCGATTGCG (ssDNA) [TT-10]
- binding result [1]: binds
- binding result [2]: binds

Source: publication PMC1180672
